Assay: yeast display, Sf9 membrane polyspecificity reagent, FACS + sequencing; frameworks hold sequencing errors
Method in brief: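 Synthetic nanobody libraries on Saccharomyces cerevisiae BJ5465 were galactose-induced for 36–48 hours, stained 1 hour at 4 °C with 10% biotinylated, detergent-solubilized Sf9 membrane reagent and enriched on streptavidin microbeads. FACS then separated cells into low and high (top ~1%) gates by anti-HA (expression) and streptavidin (reagent binding) fluorescence. Genes were colony-PCR amplified, MiSeq 2 × 250 sequenced and CDR-length filtered. A clone's polyreactivity label is that of its gate of origin.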

Sequence | polyreactivity (PSR sort gate)
QVHLVESGGGLVQAGGSLRLSSAASGSTFVFNAMAWYRQAPGKESELVAGISWSGGSTYYADSVKGRFTISRDNSKNTVYLQMKSLKPEDTAVYYCAVDGYFWGYYERDYSGQGTQVTVSS | low polyreactivity
QVHLVESGGGLVQAGGSLRLSSADTGYTFVNYARGWNRQAPGKERELVAAISDRGGSMYYADAVKGRFTISRDNAKNTVDLQMNSLKPEETAVYYCAAQHTGKYTGTRYFYWGQGTQVTVSS | high polyreactivity
QVHLVESGGGLVQAGGSLRLTCAASGSTFVPYAMGWYRQAPGKERELVAAISTSSGGTYYADSVKGRFTISRDNEKNTVYLQMNSLKPEDTAVYYCAAELVYVPHWLIYDYWGQGTQVTVSS | high polyreactivity
QVHLVESGGGLVQAGGTLRLRCAASGSTFERYVMGWYRHPLGKKGSWLPVLNHNGCSTYYAESVKGRFTISRDNAKNTVYLQMNSLKQEVTAVYYCAAYFRTVLDYGSWGQGTQVTVSS | low polyreactivity
QVHLVESGGGLVQAGGTLRLSCAASGLFARNAMGWYRQAPGKERELVAAINRSGGSTYYADSVKGRFTISRDNAKNTVYLQMNSLKPEDTAVYYCNKAFTHTKDRSPIAYEYGYWGQGTQVTVSS | low polyreactivity
QVHLVESGGGLVQAGRSLRLSCAASGSTFSYNAMGWSRQAPGKERELVAAISNGGSTNYADSVKGRFTISRDNAKYTVFLQMNSLKPEDTAVYYCAAHTYSELSWLVVYPYDYWGQGTQVTVSS | low polyreactivity
QVHLVESGGGLVQARVSLRLSCAASGSTFFVYTMGWYRQAPGKETEFVATIRRGGNTYADSVKGRFTISRDNAKNSVYLQMNSLKPEDTAVYFCAVVVYQGFRSKYYYWGQGTQVTVSS | high polyreactivity
QVHLVESGGGLVQPGGTLRLTCAASGSTFGSNARGWYRLAPGKESELVAAITRRGGSTYYADSVKGRFTISRDNAKNTVDLQMNSLKPEDTAVYYCDNVYYYLYTRYDYWGQGTEVTVSS | low polyreactivity
QVHLVESGGRLVQAGGSLRLICAASGRIFFTYAMGWYRQAPGKDRELVASITGSGGSTYYADSVKGSFTISRDNAKNTVYLQMNRLKPEDTAVYYCAAALFRRQLYRKFYYWGQGTQVTVSS | low polyreactivity
QVHLVESGGRLVQAGGSLRLSCAASGFTFSYYAMGWYRQAPGKERELVASISRSVNTYYADSVKGRFTISRDNAKNTVYLQMNSLKTEDTAVYYCAAKRISYYSYNFDYWGQGTQVTVSS | high polyreactivity
QVHLVESGGWLVQAGGSLRLSCAASGLTFYNYAMGWYRPAPGKEREFVAAISRSGGTTYYADSVKGRFTISRDNAKYTVYLQMISLKPEDTAVYYCNAQWWRYWPSQVIFDYWGQGSQVTVSS | high polyreactivity
QVHLVESGRGLFQAGGSLRLSCAASGFTFTTYVMGWYRQAPGKERELVAAITSGGSTNYADSVKGRFTISRDNAKNTVFLQMNSLKPEDTAVYFCNAVKDDGKGSYPNLHVFDYDYWGQGTQVTVSS | low polyreactivity
QVHLVESGRGLVQAGGSLRLSCAASGIIFYDYSMGWYRQAPGKERELVAAISWDGVSSYYADSVKGRFTISRDNAKNTVYLQMNSLKPEATAVYYCAARAVTDDDYEFDDWGQGTQVTVSS | low polyreactivity
QVHLVESVGGLVQAGGSLRLSCAASGSIFYYNAMGWYRQAPGKERELVAAISSGGSTNYADSVKGRFTISRDNAKNTVYLQMNSLKPEDTAVYYCATGWSWYHPDYDYWGQGTQVTVSS | low polyreactivity
QVHLVETGGGLVQAGGSLRLSCAASGFTFAYYAMGWYRQAPGKEREFVAVITWSGGDKYYADSVKGRFTISRDIAKNTVYLQMNSLKPVDTSVYYCNADAYRITRYGYDYWGQGTQVTVSS | high polyreactivity
QVHLVETGGGLVQAGGSLRLSCGASGYIFSQYAMGCYRQAPGKERELVADITTSAGSTYYADSVKGRFTISRDNAKNTVYLQMNSVIPEDTAVYYCAADVYGHSYYDYDYWGQGTQVTVSS | low polyreactivity
QVHLVVSGGGLVQAGGSLRLSCAASGRLLYKYAMGWNRQAPGKERELVAAISGSGGRTYYADSVKGRFTISRDNAKNTVYLQMNSLKPEDTAVYYCAAVHPFRHVLYDYWGQGTQVTVSS | low polyreactivity
QVHPVESGGGLVQAGGSLRLSCAASGGILYRNAMGWYRQAPGKERELVAAISSRGGSTYYADSVKGRFTISRDNAKNTVYLQMNSLKPEDTAVYYCAVVNRSAQSLKYEYWGQGTQVTVSS | high polyreactivity
QVHQQESGGGLMQAGGSQRLSCAASGSISYYSDMGRYRQAPGKEREFVAGIGYGTTTNYADSVKGRFTTSRDNAKNTVYLQMISMKPEDNAVYYCAAYQGNGYEFYYWGQGTQVTVRS | low polyreactivity
QVHRGETGGGLVQAGGSLRLSCSASGLSFPHYAMGWYRQAPGKERDLVADINLSGGSNTYYADSVKGRFTISRDNAKNTVYLMMNSLKPEDTPVYDCNAVSWENWYHIMDYWGQGTQVTVSS | high polyreactivity
QVHRVESGGRLVPAGGSLRLSCAASGFTFSVNAMGWYTPPPGKEMELVAAISSGGSTSYADSVKGRFTISRDNAKNTVYLQMNSLKPEDTAVYYCAAEYHSAGSLYTYSKYYHWGQGTQVTVSS | low polyreactivity
QVHVVESGGGLVQAGGSLRLSCAASGFTFAKYAMGWYRQAPGKERELVAVITSSGGRTYYADSVKGRFTISRDNAKNTVYLQMNSLKPEDTAVYYCNAGKYVYATSQYDYWGQGTQVTVSS | high polyreactivity

Sequence | polyreactivity (PSR sort gate)
QVKHVESGGGLVQAGASLRLSCAASGSIFAYNAMGCYIQAPGKERELVATISRGGNTNYADSVKGRFTISRDNAKNSVYLQMNSLKPEDTAVYYCNVLGRDIDHEYGYWGQGTQVTVSS | high polyreactivity
QVKLEESGGCLVQAGGSLRLSCAASGFTFEENAMGWYRQAPGKERELVAAINWSGGNTYYADSVKGRFTISRDNAKNTVYLQMNSLKPEDTAVYYCAADSPRYYYWVGPYYGYDYWGQGTQVTVSS | high polyreactivity
QVKLEESGGGLVQAGGSLRLSCAASGRTFTTYSMGCYRQAPGKERELVAAISGSGGSTYYADSVKGRFTISRDNAKNSVYVQMNSLKPEDTAVYYCATAYYYHGGYYYPYDDYWGQGTQVTVSS | low polyreactivity
QVKLEESGGGLVQAGGSLRLSCAASGSIFVVNAMGRYRPAPGKERELVDTITESGGSTYYADSVKGRFTISRDNAKNTVYLQMNSLKPEDTAVYYCAAYWHHKGDYWGQGTQVTVSS | low polyreactivity
QVKLEESGGGLVQAGGSLRLTCAASGRIFYLYGMGWYRQATGKERELVAAIDRRGTRTYYADSVKGRFTISCDNAQTTFYLQMNSVKPEDTAVYYCAARFAAYRTYTSYDYWGQGTQVTVSS | high polyreactivity
QVKLVDSGGGLVQAGGSLRLSCAASGFIFYSYDMGWYRQAPGKERELVATITSGDDTYYADSVKGRFTISRDNAKNTVYLQMNSQKPEDTAVGYWGQGTQVTVSS | low polyreactivity
QVKLVDSGGGLVQAGGSLRLSCAASGRTFRYYTMGWYRQAPGTERELVAAITRNVGRTYYADSVKGRFTISRDNAKNTVYLQMNSLKPEDTAVYYCAAGTYDGGYHYDYWGQGTQLTVSS | high polyreactivity
QVKLVEAGGGLVQAGGSLRFSCAASGNIFQGNARGWYREAPGKERELVAAITYSGAGTYYADSVKGRFTISRDNAKNSVYLQMNSLNPEDTAVYYSAADWYTFEYDYWGQGTQVTVSS | low polyreactivity
QVKLVESAGGLVQAGGSLRLSCAASGRTFVGNAMGWYRQEPGKEREVVAAITSRTGSTYYADSVKGRFTISRDNAKNTGYLQMNSLKPEDTAVYYGATPYYQIVYSRKAYNFWGQGTQVTVSS | high polyreactivity
QVKLVESAGGLVQAGGSLRLSCAASGSIFNPYDMGWYRQAPGKERELVAAIDWSGGSTYYADSVKGRFTISRDNAKNTVYLQMNSLKPEDTAVYYCNAESYQDTLFGADNDYDYWGQGTQVTVSS | low polyreactivity
QVKLVESGGGIVQAGGSLRLSCAASGRIFYSNVMGWYRQAPGKERELVATISGSSGRTYADSVKGRFTISRDNAKNTVYLQMNSLKPEDTAVYYCAADSPSVWGYRYDYDYWGQGTQVTVSS | low polyreactivity
QVKLVESGGGLFQAGGSLRLSCAASVSIFYGNAIVWYRQAPGKERELVAAISSRGTRTYYADSVKGRFTISRDNAKNTVYLQMNSLNPEATAVYYCAAADYRFYNGPYSRRWLYGYWGQGTQVTVSS | high polyreactivity
QVKLVESGGGLVKAGGRLRLSCAASGSTFRKYTMGWYRQAPWKERELVAAITYRGDRTYYADSVKGRFTISRDNAKNNVYLQMNSLKQEDTAVYYCAAVYVRGDRYDYWGQGTQVTVSS | high polyreactivity
QVKLVESGGGLVQAGGRLRLSCAASGFTFPSNAMVWYRHAPGKEREMVAAISSTDSTNYADSVMGRFTISRDNAKNTVYLQMNSLNPEDTAVYYCAKRYPRYRYNTRGNDYWGQGTQVTVSS | low polyreactivity
QVKLVESGGGLVQAGGSLRISCAASGRTFGYNAMGWYRQAPGKERELVAGISGRTASTYYADSVKGRFTISRDNAKNTVYLQMNSLKPVDTEVYYCATQFGSIYRYDYWGQGTEVTVSS | high polyreactivity
QVKLVESGGGLVQAGGSLRLSCAASGFTFALYSMGWYRQAPGKERELVAAITRRGGSTYYADSVKGRFTISRDNAKNTVYVQMNSLKPEDTAVYYCAKRERAIKVSRYDSHDYWGQGTQVTVSS | high polyreactivity
QVKLVESGGGLVQAGGSLRLSCAASGFTFNANAMRWYRQAPGKERELVAAISLSGGRTYYADSVKGRFTISRDNAKNTVYLQMISLKPEDTAVYYCAASPDGSFRRFSRVVSGDYWGKGTQVTVSS | high polyreactivity
QVKLVESGGGLVQAGGSLRLSCAASGFTFSGYDMGWYRQAPGKERELVAGISSGGVSTTYADSVKGRFTISRDNAKNTVYLQMNSLIPEDTAVYYCNAEWTSFDWGQGTQVTVSS | low polyreactivity
QVKLVESGGGLVQAGGSLRLSCAASGFTFYTYAMGWYRQAPGKETELFAAITGSGGRTYYADSVKGRFTISRDNAKNTVYLKMHSLKPEYTSLYYCAALYVYRPRTPYGYWGQGTQVTVSS | high polyreactivity
QVKLVESGGGLVQAGGSLRLSCAASGFTVYGYSMGWYRQEPGKERELVAAITSVGDTNYADSVKGRFTISRDNAKNNVYLQINSLKPEDTAVYYCKADPVYYFYWWTGDYWGQGTQETVSS | low polyreactivity
QVKLVESGGGLVQAGGSLRLSCAASGFTYFINGMGWYRQAPGKERQLVAAIRSSGASTYYADSVKGRFTISRDNAKNTVYLQMNSLKPEDTAVYYCNARSSVCNSGADYDYWGQGTQVTVSS | low polyreactivity

— the nanobody polyreactivity screen of Harvey et al. (2022)
